# Numbered stars: 1 amine (or outer) side, 2 acyl side, 3 side chain; on linkers, the order of the positions; unused ones are H or OH. Bridge positions count the residues as written; N and C are the ends. Side chains are listed from the residue outwards. Ends that are not written are not given here. * marks the point of attachment. C20 diacid = O=C(O)CCCCCCCCCCCCCCCCCCC(=O)*; γGlu = O=C(O)[C@H](CCC(=O)[*:2])N[*:1]
# T1: human calcitonin receptor (human, UniProt P30988 25-474)
# T1 sequence (looked up): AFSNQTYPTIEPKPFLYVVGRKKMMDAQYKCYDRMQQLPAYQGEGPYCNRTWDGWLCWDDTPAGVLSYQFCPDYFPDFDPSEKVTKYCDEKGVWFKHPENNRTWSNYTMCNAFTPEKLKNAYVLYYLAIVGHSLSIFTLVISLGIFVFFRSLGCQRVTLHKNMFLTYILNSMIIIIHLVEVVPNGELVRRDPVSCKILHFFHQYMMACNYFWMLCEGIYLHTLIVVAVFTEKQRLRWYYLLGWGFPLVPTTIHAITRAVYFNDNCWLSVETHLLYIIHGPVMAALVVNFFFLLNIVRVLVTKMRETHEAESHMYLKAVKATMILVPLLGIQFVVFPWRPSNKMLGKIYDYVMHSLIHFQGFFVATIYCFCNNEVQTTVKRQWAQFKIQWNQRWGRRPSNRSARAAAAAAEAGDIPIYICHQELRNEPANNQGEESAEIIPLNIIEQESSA
# B1: N^ε1-[(4S)-4-carboxy-4-(19-carboxynonadecanoylamino)butanoyl]-[His14,Arg17,Pro21,Pro27,His34]-h-amylin (peptide)
# peptide: K([γGlu-C20 diacid])CNTATCATQRLAHFLRHSSPNFGAIPSSTNVGHNTY-NH2
# modifications: disulfide 2-7; N-terminus assumed
# SMILES: CC[C@H](C)[C@H](NC(=O)[C@H](C)NC(=O)CNC(=O)[C@H](Cc1ccccc1)NC(=O)[C@H](CC(N)=O)NC(=O)[C@@H]1CCCN1C(=O)[C@H](CO)NC(=O)[C@H](CO)NC(=O)[C@H](Cc1c[nH]cn1)NC(=O)[C@H](CCCNC(=N)N)NC(=O)[C@H](CC(C)C)NC(=O)[C@H](Cc1ccccc1)NC(=O)[C@H](Cc1c[nH]cn1)NC(=O)[C@H](C)NC(=O)[C@H](CC(C)C)NC(=O)[C@H](CCCNC(=N)N)NC(=O)[C@H](CCC(N)=O)NC(=O)[C@@H](NC(=O)[C@H](C)NC(=O)[C@@H]1CSSC[C@H](NC(=O)[C@@H](N)CCCCNC(=O)CC[C@H](NC(=O)CCCCCCCCCCCCCCCCCCC(=O)O)C(=O)O)C(=O)N[C@@H](CC(N)=O)C(=O)N[C@@H]([C@@H](C)O)C(=O)N[C@@H](C)C(=O)N[C@@H]([C@@H](C)O)C(=O)N1)[C@@H](C)O)C(=O)N1CCC[C@H]1C(=O)N[C@@H](CO)C(=O)N[C@@H](CO)C(=O)N[C@H](C(=O)N[C@@H](CC(N)=O)C(=O)N[C@H](C(=O)NCC(=O)N[C@@H](Cc1c[nH]cn1)C(=O)N[C@@H](CC(N)=O)C(=O)N[C@H](C(=O)N[C@@H](Cc1ccc(O)cc1)C(N)=O)[C@@H](C)O)C(C)C)[C@@H](C)O
# notes: Synthetic acylated analogue of human amylin; also called compound 81
# B2: N^ε1N^ε1-[(4S)-4-carboxy-4-(19-carboxynonadecanoylamino)butanoyl]-[His14,Arg17,Pro21,Pro27,Pro34]-h-amylin (peptide)
# peptide: K([γGlu-C20 diacid])CNTATCATQRLAHFLRHSSPNFGAIPSSTNVGPNTY-NH2
# modifications: disulfide 2-7; N-terminus assumed
# SMILES: CC[C@H](C)[C@H](NC(=O)[C@H](C)NC(=O)CNC(=O)[C@H](Cc1ccccc1)NC(=O)[C@H](CC(N)=O)NC(=O)[C@@H]1CCCN1C(=O)[C@H](CO)NC(=O)[C@H](CO)NC(=O)[C@H](Cc1c[nH]cn1)NC(=O)[C@H](CCCNC(=N)N)NC(=O)[C@H](CC(C)C)NC(=O)[C@H](Cc1ccccc1)NC(=O)[C@H](Cc1c[nH]cn1)NC(=O)[C@H](C)NC(=O)[C@H](CC(C)C)NC(=O)[C@H](CCCNC(=N)N)NC(=O)[C@H](CCC(N)=O)NC(=O)[C@@H](NC(=O)[C@H](C)NC(=O)[C@@H]1CSSC[C@H](NC(=O)[C@@H](N)CCCCNC(=O)CC[C@H](NC(=O)CCCCCCCCCCCCCCCCCCC(=O)O)C(=O)O)C(=O)N[C@@H](CC(N)=O)C(=O)N[C@@H]([C@@H](C)O)C(=O)N[C@@H](C)C(=O)N[C@@H]([C@@H](C)O)C(=O)N1)[C@@H](C)O)C(=O)N1CCC[C@H]1C(=O)N[C@@H](CO)C(=O)N[C@@H](CO)C(=O)N[C@H](C(=O)N[C@@H](CC(N)=O)C(=O)N[C@H](C(=O)NCC(=O)N1CCC[C@H]1C(=O)N[C@@H](CC(N)=O)C(=O)N[C@H](C(=O)N[C@@H](Cc1ccc(O)cc1)C(N)=O)[C@@H](C)O)C(C)C)[C@@H](C)O
# notes: Synthetic acylated analogue of human amylin; also called compound 67
# B3: N^ε1-[(4S)-4-carboxy-4-[[(4S)-4-carboxy-4-(19-carboxynonadecanoylamino)butanoyl]amino]butanoyl]-[Glu14,Arg17,Pro21,Pro27,His34]-h-amylin (peptide)
# peptide: K([γGlu-γGlu-C20 diacid])CNTATCATQRLAEFLRHSSPNFGAIPSSTNVGHNTY-NH2
# modifications: disulfide 2-7; N-terminus assumed
# SMILES: CC[C@H](C)[C@H](NC(=O)[C@H](C)NC(=O)CNC(=O)[C@H](Cc1ccccc1)NC(=O)[C@H](CC(N)=O)NC(=O)[C@@H]1CCCN1C(=O)[C@H](CO)NC(=O)[C@H](CO)NC(=O)[C@H](Cc1c[nH]cn1)NC(=O)[C@H](CCCNC(=N)N)NC(=O)[C@H](CC(C)C)NC(=O)[C@H](Cc1ccccc1)NC(=O)[C@H](CCC(=O)O)NC(=O)[C@H](C)NC(=O)[C@H](CC(C)C)NC(=O)[C@H](CCCNC(=N)N)NC(=O)[C@H](CCC(N)=O)NC(=O)[C@@H](NC(=O)[C@H](C)NC(=O)[C@@H]1CSSC[C@H](NC(=O)[C@@H](N)CCCCNC(=O)CC[C@H](NC(=O)CC[C@H](NC(=O)CCCCCCCCCCCCCCCCCCC(=O)O)C(=O)O)C(=O)O)C(=O)N[C@@H](CC(N)=O)C(=O)N[C@@H]([C@@H](C)O)C(=O)N[C@@H](C)C(=O)N[C@@H]([C@@H](C)O)C(=O)N1)[C@@H](C)O)C(=O)N1CCC[C@H]1C(=O)N[C@@H](CO)C(=O)N[C@@H](CO)C(=O)N[C@H](C(=O)N[C@@H](CC(N)=O)C(=O)N[C@H](C(=O)NCC(=O)N[C@@H](Cc1c[nH]cn1)C(=O)N[C@@H](CC(N)=O)C(=O)N[C@H](C(=O)N[C@@H](Cc1ccc(O)cc1)C(N)=O)[C@@H](C)O)C(C)C)[C@@H](C)O
# notes: Synthetic acylated analogue of human amylin; also called compound 87
# B4: N^ε1-[(4S)-4-carboxy-4-[[(4S)-4-carboxy-4-(19-carboxynonadecanoylamino)butanoyl]amino]butanoyl]-[Arg17,Pro21,Pro27,His34]-h-amylin (peptide)
# peptide: K([γGlu-γGlu-C20 diacid])CNTATCATQRLANFLRHSSPNFGAIPSSTNVGHNTY-NH2
# modifications: disulfide 2-7; N-terminus assumed
# SMILES: CC[C@H](C)[C@H](NC(=O)[C@H](C)NC(=O)CNC(=O)[C@H](Cc1ccccc1)NC(=O)[C@H](CC(N)=O)NC(=O)[C@@H]1CCCN1C(=O)[C@H](CO)NC(=O)[C@H](CO)NC(=O)[C@H](Cc1c[nH]cn1)NC(=O)[C@H](CCCNC(=N)N)NC(=O)[C@H](CC(C)C)NC(=O)[C@H](Cc1ccccc1)NC(=O)[C@H](CC(N)=O)NC(=O)[C@H](C)NC(=O)[C@H](CC(C)C)NC(=O)[C@H](CCCNC(=N)N)NC(=O)[C@H](CCC(N)=O)NC(=O)[C@@H](NC(=O)[C@H](C)NC(=O)[C@@H]1CSSC[C@H](NC(=O)[C@@H](N)CCCCNC(=O)CC[C@H](NC(=O)CC[C@H](NC(=O)CCCCCCCCCCCCCCCCCCC(=O)O)C(=O)O)C(=O)O)C(=O)N[C@@H](CC(N)=O)C(=O)N[C@@H]([C@@H](C)O)C(=O)N[C@@H](C)C(=O)N[C@@H]([C@@H](C)O)C(=O)N1)[C@@H](C)O)C(=O)N1CCC[C@H]1C(=O)N[C@@H](CO)C(=O)N[C@@H](CO)C(=O)N[C@H](C(=O)N[C@@H](CC(N)=O)C(=O)N[C@H](C(=O)NCC(=O)N[C@@H](Cc1c[nH]cn1)C(=O)N[C@@H](CC(N)=O)C(=O)N[C@H](C(=O)N[C@@H](Cc1ccc(O)cc1)C(N)=O)[C@@H](C)O)C(C)C)[C@@H](C)O
# notes: Synthetic acylated analogue of human amylin; also called compound 86
# Target: T1, human calcitonin receptor
# Assay: cell-based or functional assay
Binder,Ratio hCT/hAmylin funct.,hCTR funct. EC50 (pM)
B1,13.3,
B2,5.2,354
B3,3.8,1100
B4,,19200

# — US20140087995A1 (published 2014)
